In publication PMC6688928:

Columns and labels:
[1] = target: FLAG-NaVAb KAV/E96C/Q150C (Hi5 cells, crosslinking assay) (UniProt A8EVM5); assay: cross-linking
[2] = target: FLAG-NaVAb E96C/Q150C (Hi5 cells, crosslinking assay) (UniProt A8EVM5); assay: cross-linking
[3] = target: NaVAb/V100C/Q150C Δ28, disulfide-crosslinked; assay: cross-linking
[4] = target: FLAG-NaVAb KAV/G94C/Q150C (Hi5 cells, crosslinking assay) (UniProt A8EVM5); assay: cross-linking
[5] = target: MBP-NaVAb/KAV/G94C/Q150C, disulfide-crosslinked (UniProt A8EVM5); assay: cryo-EM structure
[6] = target: MBP-NaVAb/KAV/G94C/Q150C, disulfide-crosslinked (UniProt A8EVM5); assay: cross-linking
[7] = target: FLAG-NaVAb G94C/Q150C (Hi5 cells, crosslinking assay) (UniProt A8EVM5); assay: cross-linking
[8] = target: FLAG-NaVAb V100C/Q150C (Hi5 cells, crosslinking assay) (UniProt A8EVM5); assay: cross-linking

## FLAG-NaVAb KAV/E96C/Q150C (Hi5 cells, crosslinking assay) (from UniProt A8EVM5 1-267) (natural protein)
[1]
  percent crosslinked in tetramers: 80%
  stoichiometry N: 4

## FLAG-NaVAb E96C/Q150C (Hi5 cells, crosslinking assay) (from UniProt A8EVM5 1-267) (natural protein)
[2]
  percent formation of disulfide-crosslinked tetramers: 40%
  stoichiometry N: 4

## NaVAb/V100C/Q150C Δ28, disulfide-crosslinked (domain or fragment)
[3]
  stoichiometry N: 4

## FLAG-NaVAb KAV/G94C/Q150C (Hi5 cells, crosslinking assay) (from UniProt A8EVM5 1-267) (natural protein)
[4]
  percent crosslinked in tetramers: 80%
  stoichiometry N: 4

## MBP-NaVAb/KAV/G94C/Q150C, disulfide-crosslinked (from UniProt A8EVM5 5-267) (natural protein)
[5]
  stoichiometry N: 4
[6]
  stoichiometry N: 4

## FLAG-NaVAb G94C/Q150C (Hi5 cells, crosslinking assay) (from UniProt A8EVM5 1-267) (natural protein)
[7]
  percent formation of disulfide-crosslinked tetramers: 20%
  stoichiometry N: 4

## FLAG-NaVAb V100C/Q150C (Hi5 cells, crosslinking assay) (from UniProt A8EVM5 1-267) (natural protein)
[8]
  percent formation of disulfide-crosslinked tetramers: 80%
  stoichiometry N: 4
